According to article PMC11305080:

Legend:
[1] = molecular target: HIT01-K21Q-R218E (cleavage-resistant variant of HIT01) (Pangasianodon hypophthalmus (iridescent shark) scaffold with human PCSK9 stretches); assay: BLI
[2] = molecular target: human proprotein convertase subtilisin/kexin type 9 (PCSK9) (human) (UniProt Q8NBP7); assay: BLI

- Kd [1]: 2.78 nM
- Kd [2]: 1.71 nM
Substance: Alirocumab
